Here are results for one molecule from paper PMC10359635, “Cas1–Cas2 physically and functionally interacts with DnaK to modulate CRISPR Adaptation”.

One data set addresses DnaK S427P (Escherichia coli (K-12 MG1655), UniProt P0A6Y8 1-638, S427P). Briefly: EMSA; EMSA: 20 nM Cy5 fork, 20 mM Tris pH 8.0, 0.1 mg/ml BSA, 7% glycerol (25% after DnaK addition); proteins diluted in 20 mM Tris pH 8.0, 100 mM NaCl, 1 mM DTT; Cas1 preincubated 5 min, then 25 min at 37 C; 5% native acrylamide gel. The conditions noted are these: protein: recombinant; tags: N-terminal 6xHis; label: 5'-Cy5 on MW14; fork: 24 bp duplex 1:2-25 2:27-50; 3' arm of strand 1 25 nt, 5' arm of strand 2 26 nt; 1 nt 5' overhang on strand 1. On the technique in general: In EMSA bound probe runs differently from free probe, usually more slowly.

Another data set has as its target DnaK (Escherichia coli (K-12 MG1655), UniProt P0A6Y8 1-638). In words: EMSA; mixed with Cy5-ssDNA; EMSA: 20 nM Cy5 fork, 20 mM Tris pH 8.0, 0.1 mg/ml BSA, 7% glycerol (25% after DnaK addition); proteins diluted in 20 mM Tris pH 8.0, 100 mM NaCl, 1 mM DTT; Cas1 preincubated 5 min, then 25 min at 37 C; 5% native acrylamide gel. The conditions noted are these: protein: recombinant; tags: N-terminal 6xHis; label: 5'-Cy5 on MW14; fork: 24 bp duplex 1:2-25 2:27-50; 3' arm of strand 1 25 nt, 5' arm of strand 2 26 nt; 1 nt 5' overhang on strand 1.

The next data set deals with T1, Cas1 (Escherichia coli, UniProt Q46896 1-305).
T1 sequence: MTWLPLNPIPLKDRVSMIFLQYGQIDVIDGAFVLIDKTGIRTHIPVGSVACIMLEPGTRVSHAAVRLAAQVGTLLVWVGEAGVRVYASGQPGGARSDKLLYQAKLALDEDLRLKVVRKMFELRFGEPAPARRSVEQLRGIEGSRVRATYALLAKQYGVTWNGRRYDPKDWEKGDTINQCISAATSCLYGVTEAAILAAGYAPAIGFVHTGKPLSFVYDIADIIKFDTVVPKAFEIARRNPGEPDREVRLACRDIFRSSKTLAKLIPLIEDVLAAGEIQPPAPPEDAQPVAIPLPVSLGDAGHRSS
Briefly: EMSA; mixed with Cy5-ssDNA decoy; aggregates in wells at highest Cas1; EMSA: 20 nM Cy5 fork, 20 mM Tris pH 8.0, 0.1 mg/ml BSA, 7% glycerol (25% after DnaK addition); proteins diluted in 20 mM Tris pH 8.0, 100 mM NaCl, 1 mM DTT; Cas1 preincubated 5 min, then 25 min at 37 C; 5% native acrylamide gel. To be noted: protein: recombinant; tags: C-terminal Strep-tag II; chain copies: 2; label: 5'-Cy5 on MW14; fork: 24 bp duplex 1:2-25 2:27-50; 3' arm of strand 1 25 nt, 5' arm of strand 2 26 nt; 1 nt 5' overhang on strand 1.

B1: Fork (flayed duplex MW12/MW14) (dsDNA)
DNA 1: GTCGGATCCTCTAGACAGCTCCATGATCACTGGCACTGGTAGAATTCGGC
DNA 2: CAACGTCATAGACGATTACATTGCTACATGGAGCTGTCTAGAGGATCCGA
For the molecule B1, the figures for the binding result with DnaK S427P, with DnaK and with Cas1 were “no binding”, “no binding” and “binds”, respectively.
